Paper PMC8573201
Numbering of substitutions follows the chain as printed.

What was measured:
[1] = biological target: T1, wild-type human GIP receptor (GIPR) (human) (UniProt P48546)
T1 sequence: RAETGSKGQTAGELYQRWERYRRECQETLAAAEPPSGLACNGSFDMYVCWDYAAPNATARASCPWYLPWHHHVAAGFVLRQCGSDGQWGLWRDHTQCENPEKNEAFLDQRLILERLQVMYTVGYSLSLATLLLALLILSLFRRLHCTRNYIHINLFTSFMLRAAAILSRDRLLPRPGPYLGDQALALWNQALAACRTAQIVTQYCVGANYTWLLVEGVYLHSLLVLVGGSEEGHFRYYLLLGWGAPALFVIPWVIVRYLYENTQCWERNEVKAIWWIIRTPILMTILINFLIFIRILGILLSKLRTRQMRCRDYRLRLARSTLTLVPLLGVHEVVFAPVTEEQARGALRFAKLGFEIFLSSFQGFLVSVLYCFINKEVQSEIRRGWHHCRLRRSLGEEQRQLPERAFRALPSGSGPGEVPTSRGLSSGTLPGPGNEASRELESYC

[2] = biological target: T2, human GIPR variant E288G (human) (UniProt P48546)
T2 sequence: T1 sequence with E267G

[3] = biological target: T3, human GIPR double mutant R190Q-E288G (human) (UniProt P48546)
T3 sequence: T1 sequence with R169Q, E267G

[4] = biological target: T4, human GIPR variant R190Q (human) (UniProt P48546)
T4 sequence: T1 sequence with R169Q

[5] = biological target: T1, wild-type human GIP receptor (GIPR) (human); remark: listed apart in the source
[6] = biological target: T2, human GIPR variant E288G (human); remark: listed apart in the source
[7] = biological target: T3, human GIPR double mutant R190Q-E288G (human); remark: listed apart in the source
[8] = biological target: T4, human GIPR variant R190Q (human); remark: listed apart in the source
[9] = scale: negative logarithm of molar concentration

Chain of Rluc8-Arrestin-3-Sp1 (P32121 whole entry): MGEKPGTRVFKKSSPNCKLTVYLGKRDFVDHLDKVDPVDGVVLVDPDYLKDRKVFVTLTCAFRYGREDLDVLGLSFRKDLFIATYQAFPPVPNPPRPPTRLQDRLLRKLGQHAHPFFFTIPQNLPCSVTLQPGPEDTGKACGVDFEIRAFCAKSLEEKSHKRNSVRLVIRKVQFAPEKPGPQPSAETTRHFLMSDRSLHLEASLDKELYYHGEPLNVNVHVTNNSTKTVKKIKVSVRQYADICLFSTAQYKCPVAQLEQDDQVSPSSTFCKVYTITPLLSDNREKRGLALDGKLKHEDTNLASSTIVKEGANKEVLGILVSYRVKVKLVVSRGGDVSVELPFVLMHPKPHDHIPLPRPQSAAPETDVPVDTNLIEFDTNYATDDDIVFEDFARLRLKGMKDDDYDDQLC

- β-arrestin 2 recruitment in HEK293 cells (BRET, GRK2 co-expressed), EC50 of GIP(1-42) [1]: 880 pM
- β-arrestin 2 recruitment in HEK293 cells (BRET, GRK2 co-expressed), EC50 of GIP(1-42) [2]: 230 pM
- β-arrestin 2 recruitment in HEK293 cells (BRET, GRK2 co-expressed), EC50 of GIP(1-42) [3]: 11000 pM
- β-arrestin 2 recruitment in HEK293 cells (BRET, GRK2 co-expressed), EC50 of GIP(1-42) [4]: 760 pM
- β-arrestin 2 recruitment in HEK293 cells (BRET between Rluc8-Arrestin-3-Sp1 and mem-linker-citrine-SH3, GRK2 co-expressed) on stimulation with GIP(1-42), Emax [5]: 98 % of WT
- β-arrestin 2 recruitment in HEK293 cells (BRET, GRK2 co-expressed), pEC50 of GIP(1-42) [5, 9]: 9.1
- β-arrestin 2 recruitment in HEK293 cells (BRET between Rluc8-Arrestin-3-Sp1 and mem-linker-citrine-SH3, GRK2 co-expressed) on stimulation with GIP(1-42), Emax [6]: 8.6 % of WT
- β-arrestin 2 recruitment in HEK293 cells (BRET, GRK2 co-expressed), pEC50 of GIP(1-42) [6, 9]: 9.6
- β-arrestin 2 recruitment in HEK293 cells (BRET between Rluc8-Arrestin-3-Sp1 and mem-linker-citrine-SH3, GRK2 co-expressed) on stimulation with GIP(1-42), Emax [7]: 12 % of WT
- β-arrestin 2 recruitment in HEK293 cells (BRET, GRK2 co-expressed), pEC50 of GIP(1-42) [7, 9]: 8
- β-arrestin 2 recruitment in HEK293 cells (BRET between Rluc8-Arrestin-3-Sp1 and mem-linker-citrine-SH3, GRK2 co-expressed) on stimulation with GIP(1-42), Emax [8]: 9 % of WT
- β-arrestin 2 recruitment in HEK293 cells (BRET, GRK2 co-expressed), pEC50 of GIP(1-42) [8, 9]: 9.1
Substance: Rluc8-Arrestin-3-Sp1 (from UniProt P32121 1-409) (natural protein)
